The supplement of paper PMC9170038

Test system: K4 kissing-loop RNA reporter
Assay: apparent KD of K4 kissing-loop reporter; higher = weaker reporter binding
Conditions: Eterna round: R107
Description: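 RNA-MaP round R107: designed RNA switches with theophylline, tryptophan, arginine or FMN aptamers are transcribed on-chip within common flanks. They are titrated with a labelled K4 kissing-loop RNA reporter in RNA-MaP buffer (100 mM Tris pH 7.5, 80 mM KCl, 4 mM MgCl2), without ligand or with the indicated ligand. Median apparent KD per design.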

[1] = input ligand: theophylline 20 uM
[2] = input ligand: tryptophan 2.4 mM
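Note: bound reporter read as fluorescence of individual clusters on recovered sequencing chips by microscopy, with normalized cluster intensities fitted with a binding model.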

UGCGUCGGUUCAGAUACCAGCCAAUUAGAGUCGAGUGAUGUUCGACAUUGAACGUCCAAAGGCCCUUGGCAGCUGGAUUGAGGAU [Same State Theophylline B GF 21]
apparent KD of K4 kissing-loop reporter (input ligand: FMN 200 uM): 211 nM | apparent KD of K4 kissing-loop reporter (input ligand: arginine 13.2 mM): 104 nM | apparent KD of K4 kissing-loop reporter (input ligand: none): 114 nM | apparent KD of K4 kissing-loop reporter [1]: 189 nM | apparent KD of K4 kissing-loop reporter [2]: 87.3 nM

UAAGAGGACCACUGCGAGAGUCCUCGAAUACGAGGACCGGUACGGCCGCCACUCGAUAACUUGCAGUGAUGUUGCAAGUAAGAAU [BrourdMod 3 - Jieux - Same State Tryptophan A]
apparent KD of K4 kissing-loop reporter (input ligand: FMN 200 uM): 98.9 nM | apparent KD of K4 kissing-loop reporter (input ligand: arginine 13.2 mM): 95.4 nM | apparent KD of K4 kissing-loop reporter (input ligand: none): 94.1 nM | apparent KD of K4 kissing-loop reporter [1]: 102 nM | apparent KD of K4 kissing-loop reporter [2]: 81 nM

AUGGGUCCACGAAGGAGCGCCGUGGAGUGAUGUUCCGGUUAGAUCCAGUGAUGUUGGGCCCGGCAGGUAGGUCGCGUGGACUCAU [Exclusion Arginine B GF 23]
apparent KD of K4 kissing-loop reporter (input ligand: FMN 200 uM): 720 nM | apparent KD of K4 kissing-loop reporter (input ligand: arginine 13.2 mM): 522 nM | apparent KD of K4 kissing-loop reporter (input ligand: none): 586 nM | apparent KD of K4 kissing-loop reporter [1]: 729 nM | apparent KD of K4 kissing-loop reporter [2]: 533 nM

UUAAGGGUCCGAGGAUAUCUCCCAGUGAUGUUGGGCGAUACGGCCCUUAAGACGAAUGGUUGAAGGAGAGAAGGCGGCUCCCGAU [Onatbi]
apparent KD of K4 kissing-loop reporter (input ligand: FMN 200 uM): 119 nM | apparent KD of K4 kissing-loop reporter (input ligand: arginine 13.2 mM): 132 nM | apparent KD of K4 kissing-loop reporter (input ligand: none): 108 nM | apparent KD of K4 kissing-loop reporter [1]: 126 nM | apparent KD of K4 kissing-loop reporter [2]: 110 nM

UCUGCUGUAUAUGAUACCAGCAGUGAGAGACAGGAAGUAUAGUGAUGUUAUAUGAGAGAAUGCCCUUGGCAGCGUGUGCGGGUGG [SSTheophylB.Y]
apparent KD of K4 kissing-loop reporter (input ligand: FMN 200 uM): 119 nM | apparent KD of K4 kissing-loop reporter (input ligand: arginine 13.2 mM): 111 nM | apparent KD of K4 kissing-loop reporter (input ligand: none): 81.7 nM | apparent KD of K4 kissing-loop reporter [1]: 119 nM | apparent KD of K4 kissing-loop reporter [2]: 66.2 nM

AAAAUUAUCUGAAGGAGCGUGAAAUAAUAUUAAACAUAACAACCCAGUGAUGUUGGGUUAUCACAGGUAGGUCGCAGAUGUAGAA [Same State Arginie B GF 25]
apparent KD of K4 kissing-loop reporter (input ligand: FMN 200 uM): 106 nM | apparent KD of K4 kissing-loop reporter (input ligand: arginine 13.2 mM): 113 nM | apparent KD of K4 kissing-loop reporter (input ligand: none): 108 nM | apparent KD of K4 kissing-loop reporter [1]: 115 nM | apparent KD of K4 kissing-loop reporter [2]: 90.8 nM

AAUAAAAUCACGGCCGCCACUGAUAUCCAUAUUAGGAGUGAUGUUCCUUUGACUAUAUAAUUUUACAGGACCGGGUGAAUAUUUA [JR_Nu_SSTryptoB_Sub027]
apparent KD of K4 kissing-loop reporter (input ligand: FMN 200 uM): 104 nM | apparent KD of K4 kissing-loop reporter (input ligand: arginine 13.2 mM): 143 nM | apparent KD of K4 kissing-loop reporter (input ligand: none): 120 nM | apparent KD of K4 kissing-loop reporter [1]: 131 nM | apparent KD of K4 kissing-loop reporter [2]: 90.8 nM

GGAUAGGAUAGAGGAUAUGGGCUAGGCAAGGAUAACUUGUCUAGCAAAUCCAUGAGGAGUGAUGUUCCAGAAGGCUGUCCUAUCG [MatMod 1 - Jieux - Exclusion - FMN B]
apparent KD of K4 kissing-loop reporter (input ligand: FMN 200 uM): 733 nM | apparent KD of K4 kissing-loop reporter (input ligand: arginine 13.2 mM): 160 nM | apparent KD of K4 kissing-loop reporter (input ligand: none): 162 nM | apparent KD of K4 kissing-loop reporter [1]: 148 nM | apparent KD of K4 kissing-loop reporter [2]: 158 nM

AGGUCACCAGGAAGGAGCGCCCUGACAGGUUGCUGCCGUGGGCAGUGAUGUUGCUCAGUCCGGCAGGUAGGUCGCCUGGUGACCU
apparent KD of K4 kissing-loop reporter (input ligand: FMN 200 uM): 139 nM | apparent KD of K4 kissing-loop reporter (input ligand: arginine 13.2 mM): 158 nM | apparent KD of K4 kissing-loop reporter (input ligand: none): 154 nM | apparent KD of K4 kissing-loop reporter [1]: 125 nM | apparent KD of K4 kissing-loop reporter [2]: 157 nM

UGACAUUGCUCAGAUACCAGACUUGAGGAUCACCCAGGUGCCAAAUAAACGUACAUAAAAGUCCCUUGGCAGCUGAGCAAUGUCU [TheoBX 11]
apparent KD of K4 kissing-loop reporter (input ligand: FMN 200 uM): 64.8 nM | apparent KD of K4 kissing-loop reporter (input ligand: arginine 13.2 mM): 24 nM | apparent KD of K4 kissing-loop reporter (input ligand: none): 55.9 nM | apparent KD of K4 kissing-loop reporter [1]: 85.8 nM | apparent KD of K4 kissing-loop reporter [2]: 76.5 nM

UGAUUUAACUGAAGGAGCGGCAAUUGAUAAGUAAAUAUAGUGAUGUUAUAUAAGAUAGAGAGCCAGGUAGGUCGCAGAGGUAUUA [ExArgB.M]
apparent KD of K4 kissing-loop reporter (input ligand: FMN 200 uM): 154 nM | apparent KD of K4 kissing-loop reporter (input ligand: arginine 13.2 mM): 154 nM | apparent KD of K4 kissing-loop reporter (input ligand: none): 132 nM | apparent KD of K4 kissing-loop reporter [1]: 210 nM | apparent KD of K4 kissing-loop reporter [2]: 142 nM

AAAUCGUUCAGAAGGAGCGUGGAUUAUUCUUAUAUAUUUAUUACGAGUGAUGUUCGUAAUUCACAGGUAGGUCGCUGAUCGAUAA [JR_ExcArginiB_Sub004]
apparent KD of K4 kissing-loop reporter (input ligand: FMN 200 uM): 106 nM | apparent KD of K4 kissing-loop reporter (input ligand: arginine 13.2 mM): 126 nM | apparent KD of K4 kissing-loop reporter (input ligand: none): 112 nM | apparent KD of K4 kissing-loop reporter [1]: 130 nM | apparent KD of K4 kissing-loop reporter [2]: 108 nM

UCCUGCAAUCAGCCACGAAAGUGGAUGGAUACCAGAGUCGAAAGACUCCCUUGGCAGCCAGUGAUGUUGGAAGCAGGUAAAUAAA
apparent KD of K4 kissing-loop reporter (input ligand: FMN 200 uM): 583 nM | apparent KD of K4 kissing-loop reporter (input ligand: arginine 13.2 mM): 501 nM | apparent KD of K4 kissing-loop reporter (input ligand: none): 761 nM | apparent KD of K4 kissing-loop reporter [1]: 342 nM | apparent KD of K4 kissing-loop reporter [2]: 1290 nM

GCUACCUAGGCAGGAUAUCGUAUUGAGUGAUGUUCAAUAACGGUCUACCAAAGGUAGACCGACCUUCGAGAAGGGCCUAGGUAGC
apparent KD of K4 kissing-loop reporter (input ligand: FMN 200 uM): 143 nM | apparent KD of K4 kissing-loop reporter (input ligand: arginine 13.2 mM): 163 nM | apparent KD of K4 kissing-loop reporter (input ligand: none): 193 nM | apparent KD of K4 kissing-loop reporter [1]: 174 nM | apparent KD of K4 kissing-loop reporter [2]: 166 nM

AUGGGCACGUCGGCCGCCACUACACGGUCCCGCGAGGGCCAGUGAUGUUGGUCGACGUGCCGUUGUAGGACCGGGACGUGGCUGU [Teatondi]
apparent KD of K4 kissing-loop reporter (input ligand: FMN 200 uM): 125 nM | apparent KD of K4 kissing-loop reporter (input ligand: arginine 13.2 mM): 54.5 nM | apparent KD of K4 kissing-loop reporter (input ligand: none): 79 nM | apparent KD of K4 kissing-loop reporter [1]: 103 nM | apparent KD of K4 kissing-loop reporter [2]: 83.3 nM

UGUCAUUGGUCUGAUACCAGAUGAUAAUCUGGAGUGAUGUUCCAAGAACGACAAAGUCGCAUCCCUUGGCAGCAGACCGAUGACU [TheoBS 18 #SwitchBubble 13 #StaticStem]
apparent KD of K4 kissing-loop reporter (input ligand: FMN 200 uM): 312 nM | apparent KD of K4 kissing-loop reporter (input ligand: arginine 13.2 mM): 151 nM | apparent KD of K4 kissing-loop reporter (input ligand: none): 236 nM | apparent KD of K4 kissing-loop reporter [1]: 526 nM | apparent KD of K4 kissing-loop reporter [2]: 238 nM

UGAUACCAGACGGCCGCCACUCCCGUAAGUCAAAGACUUACGAAGAGUAUCGUCCAGUGAUGUUGGAGGACCGGGUCUGGUAUCU [FiskerMod 10 - Jieux - Exclusion - Tryptophan B]
apparent KD of K4 kissing-loop reporter (input ligand: FMN 200 uM): 344 nM | apparent KD of K4 kissing-loop reporter (input ligand: arginine 13.2 mM): 298 nM | apparent KD of K4 kissing-loop reporter (input ligand: none): 338 nM | apparent KD of K4 kissing-loop reporter [1]: 320 nM | apparent KD of K4 kissing-loop reporter [2]: 729 nM

AAACAUUGGUCUGAUACCAGCUUGAUCGGAAACGAUCUGCUGGAGUGAUGUUCCAAGUAAAGCCCUUGGCAGCAGACCGAUGAAA [MAT - Same State Theophlline B - Mod of Eli - D16]
apparent KD of K4 kissing-loop reporter (input ligand: FMN 200 uM): 121 nM | apparent KD of K4 kissing-loop reporter (input ligand: arginine 13.2 mM): 69.6 nM | apparent KD of K4 kissing-loop reporter (input ligand: none): 149 nM | apparent KD of K4 kissing-loop reporter [1]: 192 nM | apparent KD of K4 kissing-loop reporter [2]: 115 nM

CGAGUGAUGUUCGUUCGUUUAUUUCGUUGACAGGAUAUGCGGAAACGCAGAAGGGUCACCUUUGAGUUAACGGAAUUAACGUUAU [Ex FMN A 28]
apparent KD of K4 kissing-loop reporter (input ligand: FMN 200 uM): 561 nM | apparent KD of K4 kissing-loop reporter (input ligand: arginine 13.2 mM): 452 nM | apparent KD of K4 kissing-loop reporter (input ligand: none): 544 nM | apparent KD of K4 kissing-loop reporter [1]: 490 nM | apparent KD of K4 kissing-loop reporter [2]: 456 nM

CCAUCGCUAUUCGAUACCAGCUCCUUAGUGAUGUUGAGGUUUUACCCACUGUAGGUGGGAAGCCCUUGGCAGCGAAUAGUGAUGG [Theophylline B K4 29]
apparent KD of K4 kissing-loop reporter (input ligand: FMN 200 uM): 523 nM | apparent KD of K4 kissing-loop reporter (input ligand: arginine 13.2 mM): 217 nM | apparent KD of K4 kissing-loop reporter (input ligand: none): 430 nM | apparent KD of K4 kissing-loop reporter [1]: 480 nM | apparent KD of K4 kissing-loop reporter [2]: 816 nM

CCUAUCUCAUACGAUACCAGUGAAUUUAUGUUUAUUAGCAGUGAUGUUGCAUUCCAAGUACACCCUUGGCAGCGUAUGGGAUAGG [Ex Theophylline B K4 23]
apparent KD of K4 kissing-loop reporter (input ligand: FMN 200 uM): 178 nM | apparent KD of K4 kissing-loop reporter (input ligand: arginine 13.2 mM): 201 nM | apparent KD of K4 kissing-loop reporter (input ligand: none): 205 nM | apparent KD of K4 kissing-loop reporter [1]: 193 nM | apparent KD of K4 kissing-loop reporter [2]: 151 nM
